Patent publication US20150024402A1

Key:
[1] = target: Human Serum Albumin (HSA) (human) (UniProt P02768); assay: LSPR absorbance shift of HSA-conjugated gold nanorods; 18.75 ug/mL HSA (partial coverage), BSA block, 60 min incubation
[2] = target: Human Serum Albumin (HSA) (human) (UniProt P02768); assay: LSPR absorbance shift of HSA-conjugated gold nanorods in suspension, dose response at equilibrium; 600 ug/mL HSA (full coverage), BSA block, 30 min incubation; filing says the value deviates through ligand depletion
[3] = target: Human Serum Albumin (HSA) (human) (UniProt P02768); assay: LSPR absorbance shift of HSA-conjugated gold nanorods; carboxyl groups blocked with mPEG-NH2 at 16700 ug/mL, 60 min incubation
[4] = target: Human Serum Albumin (HSA) (human) (UniProt P02768); assay: LSPR absorbance shift of HSA-conjugated gold nanorods; carboxyl groups blocked with BSA at 200 ug/mL, 60 min incubation
[5] = target: Human Serum Albumin (HSA) (human) (UniProt P02768); assay: LSPR absorbance shift of HSA-conjugated gold nanorods; 600 ug/mL HSA (full coverage), BSA block, 60 min incubation; filing says the value deviates through ligand depletion
[6] = target: Human Serum Albumin (HSA) (human) (UniProt P02768); assay: LSPR absorbance shift of HSA-conjugated gold nanorods in suspension, dose response at equilibrium; 18.75 ug/mL HSA (partial coverage), BSA block, 30 min incubation
[7] = target: Human Serum Albumin (HSA) (human) (UniProt P02768); assay: LSPR absorbance shift of HSA-conjugated gold nanorods; 37.5 ug/mL HSA (partial coverage), BSA block, 60 min incubation
[8] = target: Human Serum Albumin (HSA) (human) (UniProt P02768); assay: LSPR absorbance shift of HSA-conjugated gold nanorods; carboxyl groups blocked with ovalbumin at 200 ug/mL, 60 min incubation

Chain of UniProt P02768 (P02768 25-609 limits assumed): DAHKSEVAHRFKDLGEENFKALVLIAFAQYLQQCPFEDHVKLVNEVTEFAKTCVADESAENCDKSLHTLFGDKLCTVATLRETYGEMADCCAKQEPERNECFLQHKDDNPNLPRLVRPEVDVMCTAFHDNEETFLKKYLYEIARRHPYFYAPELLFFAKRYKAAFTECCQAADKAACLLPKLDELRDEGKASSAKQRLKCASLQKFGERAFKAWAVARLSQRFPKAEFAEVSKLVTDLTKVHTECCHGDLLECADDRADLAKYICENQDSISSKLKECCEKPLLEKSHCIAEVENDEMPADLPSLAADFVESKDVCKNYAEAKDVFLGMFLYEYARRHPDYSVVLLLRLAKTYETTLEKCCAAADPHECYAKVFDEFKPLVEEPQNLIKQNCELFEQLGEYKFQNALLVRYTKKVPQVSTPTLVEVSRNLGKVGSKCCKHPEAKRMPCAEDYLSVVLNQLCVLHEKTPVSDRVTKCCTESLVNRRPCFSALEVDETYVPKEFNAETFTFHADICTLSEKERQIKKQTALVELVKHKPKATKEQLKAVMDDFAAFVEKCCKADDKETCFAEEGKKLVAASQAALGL

Kd [1]: 3.8 nM
Kd [2]: 99.4 nM
Kd [3]: 2.5 nM
Kd [4]: 8.44 nM
Kd [5]: 252 nM
Kd [6]: 6.41 nM
Kd [7]: 5.5 nM
Kd [8]: 5.22 nM
Substance: Anti-Human Serum Albumin monoclonal antibody (ab18081, available from Abcam)
